Results on 3 substances are retold here after patent publication US20220289796A1.

Data set [1] deals with DENV2 sE IntFc8, displayed on EXPI293F cells (Dengue virus 2 strain 16681). The data set is described as follows: flow cytometry, EXPI293F surface display, RT (~23 C).
In data set [2] the target is DENV2 sE SHP2, displayed on EXPI293F cells (Dengue virus 2 strain 16681). The description is as above.
In data set [3] the target is DENV2 sE Cm1, displayed on EXPI293F cells (Dengue virus 2 strain 16681). The data set is described as above.
The target in data set [4] is DENV2 sE Cm2, displayed on EXPI293F cells (Dengue virus 2 strain 16681). The description is as above.
In data set [5] the target is DENV2 sE UndPk6, displayed on EXPI293F cells (Dengue virus 2 strain 16681). The data set is described as above.
The target of data set [6] is DENV2 sE WT, displayed on EXPI293F cells (Dengue virus 2 strain 16681). The data set is described as above.
In data set [7] the target is DENV2 sE IntFc6, displayed on EXPI293F cells (Dengue virus 2 strain 16681). The data set is described as above.
Data set [8] has as its target DENV2 sE SHP1, displayed on EXPI293F cells (Dengue virus 2 strain 16681). The data set is described as above.
Data set [9] concerns the target DENV2 sE PM4, displayed on EXPI293F cells (Dengue virus 2 strain 16681). The data set is described as above.
Data set [10] deals with DENV2 sE IntFc2, displayed on EXPI293F cells (Dengue virus 2 strain 16681). The description is as above.
Data set [11] addresses DENV2 sE HCat3, displayed on EXPI293F cells (Dengue virus 2 strain 16681). Described as above.
Data set [12] concerns the target DENV2 sE Mnmer1, displayed on EXPI293F cells (Dengue virus 2 strain 16681). The description is as above.
The target in data set [13] is DENV2 sE Mnmer2, displayed on EXPI293F cells (Dengue virus 2 strain 16681). The description is as above.
Data set [14] concerns the target DENV2 sE PM2, displayed on EXPI293F cells (Dengue virus 2 strain 16681). The data set is described as above.
In data set [15] the target is DENV2 sE IntFc8, displayed on EXPI293F cells (Dengue virus 2 strain 16681). The data set is described as follows: flow cytometry, displayed sE, 40 C.
In data set [16] the target is DENV2 sE SHP2, displayed on EXPI293F cells (Dengue virus 2 strain 16681). The data set is described as follows: flow cytometry, displayed sE, 40 C.
Data set [17] deals with DENV2 sE UndPk6, displayed on EXPI293F cells (Dengue virus 2 strain 16681). The data set is described as follows: flow cytometry, displayed sE, 40 C.
For data set [18], the target named is DENV2 sE SHP1, displayed on EXPI293F cells (Dengue virus 2 strain 16681). The experiment in a line: flow cytometry, displayed sE, 40 C.
Data set [19] addresses DENV2 sE PM4, displayed on EXPI293F cells (Dengue virus 2 strain 16681). The experiment in a line: flow cytometry, displayed sE, 40 C.
For data set [20], the target named is DENV2 sE IntFc2, displayed on EXPI293F cells (Dengue virus 2 strain 16681). The data set is described as follows: flow cytometry, displayed sE, 40 C.
The target of data set [21] is DENV2 sE HCat3, displayed on EXPI293F cells (Dengue virus 2 strain 16681). The data set is described as follows: flow cytometry, displayed sE, 40 C.
In data set [22] the target is DENV2 sE PM2, displayed on EXPI293F cells (Dengue virus 2 strain 16681). The experiment in a line: flow cytometry, displayed sE, 40 C.
Data set [23] deals with DENV2 sE IntFc8, displayed on EXPI293F cells (Dengue virus 2 strain 16681). The data set is described as follows: flow cytometry, EXPI293F surface display, 40 C.
Data set [24] addresses DENV2 sE SHP2, displayed on EXPI293F cells (Dengue virus 2 strain 16681). The experiment in a line: flow cytometry, EXPI293F surface display, 40 C.
In data set [25] the target is DENV2 sE Cm1, displayed on EXPI293F cells (Dengue virus 2 strain 16681). The experiment in a line: flow cytometry, EXPI293F surface display, 40 C.
In data set [26] the target is DENV2 sE Cm2, displayed on EXPI293F cells (Dengue virus 2 strain 16681). The experiment in a line: flow cytometry, EXPI293F surface display, 40 C.
The target in data set [27] is DENV2 sE UndPk6, displayed on EXPI293F cells (Dengue virus 2 strain 16681). The data set is described as follows: flow cytometry, EXPI293F surface display, 40 C.
In data set [28] the target is DENV2 sE WT, displayed on EXPI293F cells (Dengue virus 2 strain 16681). The data set is described as follows: flow cytometry, EXPI293F surface display, 40 C.
The target of data set [29] is DENV2 sE IntFc6, displayed on EXPI293F cells (Dengue virus 2 strain 16681). The data set is described as follows: flow cytometry, EXPI293F surface display, 40 C.
Data set [30] addresses DENV2 sE SHP1, displayed on EXPI293F cells (Dengue virus 2 strain 16681). The data set is described as follows: flow cytometry, EXPI293F surface display, 40 C.
In data set [31] the target is DENV2 sE IntFc2, displayed on EXPI293F cells (Dengue virus 2 strain 16681). The data set is described as follows: flow cytometry, EXPI293F surface display, 40 C.
The target in data set [32] is DENV2 sE HCat3, displayed on EXPI293F cells (Dengue virus 2 strain 16681). The data set is described as follows: flow cytometry, EXPI293F surface display, 40 C.
Data set [33] addresses DENV2 sE Mnmer1, displayed on EXPI293F cells (Dengue virus 2 strain 16681). The experiment in a line: flow cytometry, EXPI293F surface display, 40 C.
Data set [34] deals with DENV2 sE Mnmer2, displayed on EXPI293F cells (Dengue virus 2 strain 16681). The experiment in a line: flow cytometry, EXPI293F surface display, 40 C.
The target of data set [35] is DENV2 sE PM2, displayed on EXPI293F cells (Dengue virus 2 strain 16681). The experiment in a line: flow cytometry, EXPI293F surface display, 40 C.
Data set [36] is described as follows: nanoDSF melting, homodimer dissociation, 4.0 µM.

“And” between values parts separate entries of the source, which are not always exact repeats. Equal entries are not always repeated. Where two headings read alike, the source gives them in different places.

For the substance 2D22 (antibody), the Fluorescence Ratio (Fr, Var/WT) in data set [1] was 2.5; in data set [2], 2.4; in [3], 0.8; in data set [4], 1.9; in data set [5] it was 2.7; in data set [6], 1. The Fluorescence Ratio (Fr, Var/WT) in data set [7] stood at 1; in data set [8] it was 3; in [9], 3; in data set [10], 1.3; in data set [11] it was 1.6; in data set [12] it was 0.5. Further, the Fluorescence Ratio (Fr, Var/WT) in data set [13] was 2.8; in [14] it was 2.5; in data set [23] it was 4.4; in [24] it was 3.1; in [25], 1.6; in data set [26], 4.4. Moreover, the Fluorescence Ratio (Fr, Var/WT) in [27] turned out to be 4.9; in data set [28], 1; in [29], 0; in data set [30], 4.4; in [31], 2.5; in data set [32], 2.8. In addition, the Fluorescence Ratio (Fr, Var/WT) in [33] is 0; in [34] it was 0.8; in data set [35], 2.8. Also, the Fr (geometric mean fluorescence intensity ratio, variant/WT) in [15], in [16], in [17], in data set [18], in data set [19] and in data set [20] was greater than 2 fold throughout. The Fr (geometric mean fluorescence intensity ratio, variant/WT) in data set [21] and in data set [22] was greater than 2 fold in each case.
As for DENV2 sE WT, the Tm^1 (Dimer Dissociation) is 35.9 ° C. and 34.2 ° C. and 32.1 ° C.
For the substance DENV3 sE WT, in [36], the Tm^1 (Dimer Dissociation) is less than 15 ° C and the ΔTm^1 (Var-WT) came to 0 ° C.
